# Results: article doi:10.1101/2021.07.15.452465
# How the values were obtained:
# [1] = biological target: A. nidulans CCAAT-binding complex, conserved core domains of HapB, HapC and HapE (HapB^231-293, HapC^42-132, HapE^47-164) (Aspergillus nidulans); experiment: SPR
# [2] = biological target: A. nidulans CCAAT-binding complex, conserved core domains of HapB, HapC and HapE (HapB^231-293, HapC^42-132, HapE^47-164) (Aspergillus nidulans); experiment: SEC
# [3] = biological target: A. nidulans HapX^36-133M carrying C92K and C129S point mutations (Aspergillus nidulans); experiment: crystal structure
# [4] = biological target: A. nidulans CCAAT-binding complex, conserved core domains of HapB, HapC and HapE (HapB^231-293, HapC^42-132, HapE^47-164) (Aspergillus nidulans); experiment: crystal structure
Substance,fold increase of binding against HapX^36-133 [1] [fold],stoichiometry N [2] [HapX per CBC],stoichiometry N [3],stoichiometry N (HapX subunits per CBC) [4]
A. nidulans HapX^36-141 (domain or fragment),< 3.6,–,–,–
A. nidulans HapX^36-133M carrying C92K and C129S point mutations (domain or fragment),–,2,2,2
